Data on 5 molecules can be found in PMC8804933 (The EMBO Journal, 2021).

Substitutions are numbered along the chain they refer to. In names and notes the source's numbering stands.

Assay [1] addresses T1, ubiquitin (unlabeled, wild-type) (human, UniProt P0CG48 1-76). In words: BLI. On the technique in general: Biolayer interferometry detects binding as a change in optical thickness at a sensor tip.
For assay [2], the target named is T1, ubiquitin (unlabeled, wild-type). In words: NMR titration.

B1: GST-UBE2R2 wild-type (enzyme)
chain: MAQQQMTSSQKALMLELKSLQEEPVEGFRITLVDESDLYNWEVAIFGPPNTLYEGGYFKAHIKFPIDYPYSPPTFRFLTKMWHPNIYENGDVCISILHPPVDDPQSGELPSERWNPTQNVRTILLSVISLLNEPNTFSPANVDASVMFRKWRDSKGKDKEYAEIIRKQVSATKAEAEKDGVKVPTTLAEYCIKTKVPSNDNSSDLLYDDLYDDDIDDEDEEEEDADCYDDDDSGNEES
For the molecule B1, the Kd (usually a measure of binding affinity in units of concentration) in assay [1] is 650 µM.

B2: GST-UBE2R2 R149E (enzyme)
chain: B1 chain with R149E
As to B2, in assay [1], the dissociation constant (Kd) was above 4000 µM.

B3: 15N-labeled UBE2S UBC E139R/E143R (residues 1-156) (domain or fragment)
chain: MNSNVENLPPHIIRLVYKEVTTLTADPPDGIKVFPNEEDLTDLQVTIEGPEGTPYAGGLFRMKLLLGKDFPASPPKGYFLTKIFHPNVGANGEICVNVLKRDWTAELGIRHVLLTIKCLLIHPNPESALNEEAGRLLLRNYERYAARARLLTEIHG
On to B3, for which the binding result in assay [2] was “binds”.

B4: 15N-labeled UBE2S UBC E139R (residues 1-156) (domain or fragment)
chain: B3 chain with R143E
For the molecule B4, in assay [2], the binding result was “binds”.

B5: 15N-labeled UBE2S UBC E143R (residues 1-156) (domain or fragment)
chain: B3 chain with R139E
For B5, the binding result in assay [2] is recorded as “binds”.
